Results reported in the DeepSol protein solubility set.

Test: soluble on expression in E. coli; label from the status in PepcDB or PDB records

Sequence	soluble on expression in E. coli
MGSDKIHHHHHHMELVIRDIRKRFQETEVLRGASYRFYSGKITGVLGRNGAGKTTLFNILYGDLAADNGTICLLKDNHEYPLTDKDIGIVYSENYLPEFLTGYEFVKFYMDLHPSDDLMTIDDYLDFMEIGQTERHRIIKGYSDGMKSKLSLICLMISKPKVILLDEPLTAVDVVSSIAIKRLLLELSEDHIIILSTHIMALAEDLCDIVAVLDKGKLQTLDIDRKHEQFEERLLQVLKGDEYDK	not soluble
GDSSSSGNSFVGLRVVAKWSSNGYFYSGKITRDVGAGKYKLLFDDGYECDVLGKDILLCDPIPLDTEVTALSEDEYFSAGVVKGHRKESGELYYSIEKEGQRKWYKRMAVILSLEQGNRLREQYGLGPYEAVTPLTKAADISLDNLVEGKRKRRSN	soluble
MGSDKIHHHHHHMAKNKQEDIFDAAMQLFAERGYDGTTIPMIAEKAKVGAGTIYRYFENKEALVNSLFSKSMLQLSEMIKTDFPVEANIREQFSHTYNRLFEFARNNVDAFLFTNSHCDSYFLDEQSKKIFDDFIGFFMNIIEDGIVKGLLRPLPPVALIIIVYQPLEKLIKVIATGQLEYSKELVKELEESSWNAIRII	not soluble
LALQAKQYGDFDRYVLALSWQTGFCQSQHDRNRNERDECRLQTETTNKADFLTVHGLWPGLPKSVAARGVDERRWMRFGCATRPIPNLPEARASRMCSSPETGLSLETAAKLSEVMPGAGGRSCLERYEYAKHGACFGFDPDAYFGTMVRLNQEIKESEAGKFLADNYGKTVSRRDFDAAFAKSWGKENVKAVKLTCQGNPAYLTEIQISIKADAINAPLSANSFLPQPHPGNCGKTFVIDKAGY	soluble
MPAKSSSRTSATSSRRTILRLKVIPWERIISPFPSERGGSMSSLGIDIGGANLKVASKDGWEIIYFPMWREAERLEGKLREIAEKYSTAKAGVVMTAELADFFKSRAEGVEFIAKACKKAFEDVRFLDVEGNLKSDIDNPENFAASNWVASCRFLLEEAYRNFLFVDMGSTTTDIIPVTSKIEAAKTDFERLKRGELIYFGVLRTPVFYVLKEFEGAPLCPEFFAITADVFVTTGDIKEEDYSCDTPDGKGRSREECMRRLARTVCSDLEELGEEKVKELALEAKWAMIDRLSEVIEHKSKIYGLKTVFACGIGEFLIAEACEEAGAECRLISELYGDYSKLFPAYAMLKLVEQHLEHHHHHH	not soluble
VLDDEEKIVDLSSSIEKFLDFAPGSLAGVALSEILHPEDYLHFKTALDRQKPHEAVLMFYSRFKTGDGSWLNVEWSLSIKRKPMTDQYEYTIILRKTDNPLF	not soluble
MQTELTGKLQKLGFTENEAKIYIGLLRQGEVTAREIHEFTHVPRTKIYSTLNRMSKKKYIEVIEGTPAYFRSIDPEQLLERLRDEFLFSLNETLEELNSAGYGMKNKCC	not soluble
MGSDKIHHHHHHMEVDNKRRHSEDELKQEAVKKIKSQEPNYAYLETVVREKLDFDSEKICCITLSPLNVYCCLVCGHYYQGRHEKSPAFIHSIDENHHVFLNLTSLKFYMLPQNVQILHDGEVQLLNSIKFAAYPTYCPKDLEDFPRQCFDLSNRTYLNGFIGFTNAATYDYAHSVLLLISHMVPVRDHFLLNHFDNQGEFIKRLSICVKKIWSPKLFKHHLSVDDFVSYLKVREGLNLNPIDPRLFLLWLFNKICSSSNDLKSILNHSCKGKVKIAKVENKPEASESVTGKVIVKPFWVLTLDLPEFSPFEDGNSVDDLPQINITKLLTKFTKSRSSSTSTVFELTRLPQFLIFHFNRFDRNSDHPVKNRNQTLVEFSSELEILHVKYRLKANVVHVVIKQPSTDGNAFNGDEKSHWITQLYDNKSEKWIEIDGINTTEREAELLFLKETFIQVWEKQE	not soluble
MTISGISSDQPFIETIDTLMLGGFPVLSTTPSAFVASLYRSLIEERQQRVFFANTNFIVQCQSLRGRMYSERVCILNDGIGMDLAALFIHGRRFVSNLNGTDLIPYLCQHAPRPLRFFLLGAKPGVADMAAQMLCQLGQLVVGTCDGYAQFVATGEDLVESINASGADVLLVALGNPVQERWILDHDVQLRTPLVFGVGALFDFMSGNVRRAPLWVRRVRGEWLYRLLLEPRRLLKRYSWDLLRFFGVCLLRRREGD	not soluble
MSELKDIIAAVTPCKGADFELQALKIRQPQGDEVLVKVVATGMCHTDLIVRDQKYPVPLPAVLGHEGSGIIEAIGPNVTELQVGDHVVLSYGYCGKCTQCNTGNPAYCSEFFGRNFSGADSEGNHALCTHDQGVVNDHFFAQSSFATYALSRENNTVKVTKDVPIELLGPLGCGIQTGAGACINALKVTPASSFVTWGAGAVGLSALLAAKVCGASIIIAVDIVESRLELAKQLGATHVINSKTQDPVAAIKEITDGGVNFALESTGSPEILKQGVDALGILGKIAVVGAPQLGTTAQFDVNDLLLGGKTILGVVEGSGSPKKFIPELVRLYQQGKFPFDQLVKFYAFDEINQAAIDSRKGITLKPIIKIA	soluble
TTAYMEYNTTGSVKGLDNVKIRRALNLATNRKGVVQAAVDTGSKPAIAFAPTGLAKTPDGTDLAKYVAPGYEYNKTEAAKLFKEGLAESGLTKLKLTITADADAPAAKNSVDYIKSTWEAALPGLTVEEKFVTFKQRLEDSRKQNFDIVVSLWGGDYPEGSTFYGLFKSDSQNNDGKFANKDYDAAYNKAISEDAMKPAESAKDYKEAEKILFEQGAYNPLYFRSGKGLQNPKLKGVIRNTTGLSIDFTHAYKK	not soluble
MRAVFRTDIGQIREHNEDSGGVFVNQSGQYLAVVADGMGGHRAGDVASSMAVAYLQERWEKESSLASPAEAEQWLKTQIAAANEQLFRHACSHPECQGMGTTVVAAVCANSFATVAHIGDSRCYVLNKSGIQQLTDDHSLVNELVKSGQLSKEAAEHHPRKNVLLRALGTEPAVKIDVKTVALDEGDMLLLCSDGLSNKVPEADMIHILTGAGTLEEKAEALIQLANGRGGEDNISLAVIDVSAEREGG	soluble
MGSDKIHHHHHHAADVSFPDAVRKVAVINNMPVLKTKDNHEILSSELEGDGKVASEALAENIANVNYFDQVIICDSVFRAQDKVPRVNVILTKEEVRKLSEDLGVDMILSFDRIHIQTKPGVLFYPDFPMPIDAVDGIISPIVRVYIPNRDKPLFVVAKQDTISWEIEPALSDRKIVKEASEYAASIPVEHLLPHWDEVARFYYDGGNIEMRDAGVYLRENNWDEAYSQWKIAYEKRKGQQKMKAAFNIALYYEIKDNVEQAKEWLGKAKKLVKSGSRDEQLIAFYSLELEKRGSKLSQLRIQMKRFDDNF	not soluble
MESGKMAPPKNAPRDALVMAQILKDMGITEYEPRVINQMLEFAFRYVTTILDDAKIYSSHAKKPNVDADDVRLAIQCRADQSFTSPPPRDFLLDIARQKNQTPLPLIKPYAGPRLPPDRYCLTAPNYRLKSLIKKGPNQGRLVPRLSVGAVSSKPTTPTIATPQTVSVPNKVATPMSVTSQRFTVQIPPSQSTPVKPVPATTAVQNVLINPSMIGPKNILITTNMVSSQNTANEANPLKRKHEDDDDNDIM	soluble
PGRFALVFKDVTDRRRSEEALRESEAMFRSLTEAMPQLVWSARPDGSCDFFNRRWTDCTGASTEMAMGDGWRAFYHPDDQPAIDRLWPKALRTGEHYEIEYRLRHRDGSYRWMLGRGVPVRDEAGGILRWMGTCTDIH	not soluble
MSLRITEGSAVIEVPEAYSGPGRRSPGFYNADQVLNRDLTIDLINEFGVEKVLDGFGGSGVRGIRISLETKAKVVIAEISPSSCEIIKQNIAINNAEADLIHDNFQCVSSHIAFDYIDVDPYGSPVPYLDAAIMNVRKGGYLGITATDQSTLTGSTLNKTRRRYGAYIVNDIYRHEMGIRTLIGYIARRAAAFDRYIEPQLSIWNHHYYRVFVKVGKGVNGADKMIENIGYLNKHTTIDNSFKDVNEGPVWLSNLNNAELLEKIRDPRVSKKIEMIKHDNRLLFVDLTDIARKTSLSLPPLAKVMDEIMKHGYEAHRTSFSPTGIKTDCPYAEVSEILKAYAKREGHHHHHH	soluble
MLAGHTLIESKNDHQSRRNCEFRRAIAAAGRCRRVYGGALPLLASSVPMSVRMDTRHRQKQALAQTAATMIEPGEFIFLDSGSTNLALIDFLPKGYDLTLATNSIDIAGAALRGQDLKLIMLGGTVDLAVGGCVDATAIGSLAQMNIDRSFIGVCSVSPTFGLSAFDIADATFKRALVAASGYTIALATTDKLEVRAPHRVSEINEIDCLVLEHDAPISHLDDLVRAGASIVKALQPFAAALEHHHHHH	not soluble
